# Laboratory results: patent US20220411504A1 (Janssen / Centocor, published 2022)
# Target: HLA-G on cells (K562-HLA-G and HLA-G expressing tumor cells) (human)
# Test: cell-based or functional assay
row,Binder,"Cytotoxicity, EC50 (T cell-mediated, NCI-H2009-b2m target cells, 72 hr)"
1,"HC3B238 (bispecific antibody, human IgG1, kappa, L234A L235A) scFv: EVQLVESGGGLVKPGGSLRLSCAASGFTFSRYNMNWVRQAPGKGLEWVSSISTSSNYIYYADSVKGRFTFSRDNAKNSLDLQMSGLRAEDTAIYYCTRGWGPFDYWGQGTLVTVSSGGSEGKSSGSGSESKSTGGSDIQMTQSPSSLSASVGDRVTITCRARQSIGTAIHWYQQKPGKAPKLLIKYASESISGVPSRFSGSGSGTDFTLTISSVQPEDFATYYCQQSGSWPYTFGQGTKLEIKEPKSSDKTHTCPPCPAPEAAGGPSVFLFPPKPKDTLMISRTPEVTCVVVSVSHEDPEVKFNWYVDGVEVHNAKTKPREEQYNSTYRVVSVLTVLHQDWLNGKEYKCKVSNKALPAPIEKTISKAKGQPREPQVYVYPPSREEMTKNQVSLTCLVKGFYPSDIAVEWESNGQPENNYKTTPPVLDSDGSFALVSKLTVDKSRWQQGNVFSCSVMHEALHNHYTQKSLSLSPGK heavy: QVQLQQSGPGLVKPSQTLSLTCAISGDSVSSNRAAWNWIRQSPSRGLEWLGRTYYRSKWYNDYAVSVKSRITINPDTSKNQISLQLNSVTPEDTAVYYCARVRPGIPFDYWGQGTPVTVSSASTKGPSVFPLAPSSKSTSGGTAALGCLVKDYFPEPVTVSWNSGALTSGVHTFPAVLQSSGLYSLSSVVTVPSSSLGTQTYICNVNHKPSNTKVDKKVEPKSCDKTHTCPPCPAPEAAGGPSVFLFPPKPKDTLMISRTPEVTCVVVSVSHEDPEVKFNWYVDGVEVHNAKTKPREEQYNSTYRVVSVLTVLHQDWLNGKEYKCKVSNKALPAPIEKTISKAKGQPREPQVYVLPPSREEMTKNQVSLLCLVKGFYPSDIAVEWESNGQPENNYLTWPPVLDSDGSFFLYSKLTVDKSRWQQGNVFSCSVMHEALHNHYTQKSLSLSPG light: not shown",0.0173 nM
2,"HC3B236 (bispecific antibody, human IgG1, kappa, L234A L235A) scFv: QSALTQPASVSGSPGQSITISCTGTSSNIGTYKFVSWYQQHPGKAPKVMIYEVSKRPSGVSNRFSGSKSGNTASLTISGLQAEDEADYYCVSYAGSGTLLFGGGTKLTVLGGSEGKSSGSGSESKSTGGSQVQLQQSGPGLVKPSQTLSLTCAISGDSVFNNNAAWSWIRQSPSRGLEWLGRTYYRSKWLYDYAVSVKSRITINPDTSKNQFSLQLNSVTPEDTAVYYCARGYSSSFDYWGQGTLVTVSSEPKSSDKTHTCPPCPAPEAAGGPSVFLFPPKPKDTLMISRTPEVTCVVVSVSHEDPEVKFNWYVDGVEVHNAKTKPREEQYNSTYRVVSVLTVLHQDWLNGKEYKCKVSNKALPAPIEKTISKAKGQPREPQVYVYPPSREEMTKNQVSLTCLVKGFYPSDIAVEWESNGQPENNYKTTPPVLDSDGSFALVSKLTVDKSRWQQGNVFSCSVMHEALHNHYTQKSLSLSPG heavy: QVQLQQSGPGLVKPSQTLSLTCAISGDSVSSNRAAWNWIRQSPSRGLEWLGRTYYRSKWYNDYAVSVKSRITINPDTSKNQISLQLNSVTPEDTAVYYCARVRPGIPFDYWGQGTPVTVSSASTKGPSVFPLAPSSKSTSGGTAALGCLVKDYFPEPVTVSWNSGALTSGVHTFPAVLQSSGLYSLSSVVTVPSSSLGTQTYICNVNHKPSNTKVDKKVEPKSCDKTHTCPPCPAPEAAGGPSVFLFPPKPKDTLMISRTPEVTCVVVSVSHEDPEVKFNWYVDGVEVHNAKTKPREEQYNSTYRVVSVLTVLHQDWLNGKEYKCKVSNKALPAPIEKTISKAKGQPREPQVYVLPPSREEMTKNQVSLLCLVKGFYPSDIAVEWESNGQPENNYLTWPPVLDSDGSFFLYSKLTVDKSRWQQGNVFSCSVMHEALHNHYTQKSLSLSPG light: not shown",4.54 nM
3,"HC3B237 (bispecific antibody, human IgG1, kappa, L234A L235A) scFv: DIQMTQSPSSLSASVGDRVTITCRARQSIGTAIHWYQQKPGKAPKLLIKYASESISGVPSRFSGSGSGTDFTLTISSVQPEDFATYYCQQSGSWPYTFGQGTKLEIKGGSEGKSSGSGSESKSTGGSEVQLVESGGGLVKPGGSLRLSCAASGFTFSRYNMNWVRQAPGKGLEWVSSISTSSNYIYYADSVKGRFTFSRDNAKNSLDLQMSGLRAEDTAIYYCTRGWGPFDYWGQGTLVTVSSEPKSSDKTHTCPPCPAPEAAGGPSVFLFPPKPKDTLMISRTPEVTCVVVSVSHEDPEVKFNWYVDGVEVHNAKTKPREEQYNSTYRVVSVLTVLHQDWLNGKEYKCKVSNKALPAPIEKTISKAKGQPREPQVYVYPPSREEMTKNQVSLTCLVKGFYPSDIAVEWESNGQPENNYKTTPPVLDSDGSFALVSKLTVDKSRWQQGNVFSCSVMHEALHNHYTQKSLSLSPGK heavy: QVQLQQSGPGLVKPSQTLSLTCAISGDSVSSNRAAWNWIRQSPSRGLEWLGRTYYRSKWYNDYAVSVKSRITINPDTSKNQISLQLNSVTPEDTAVYYCARVRPGIPFDYWGQGTPVTVSSASTKGPSVFPLAPSSKSTSGGTAALGCLVKDYFPEPVTVSWNSGALTSGVHTFPAVLQSSGLYSLSSVVTVPSSSLGTQTYICNVNHKPSNTKVDKKVEPKSCDKTHTCPPCPAPEAAGGPSVFLFPPKPKDTLMISRTPEVTCVVVSVSHEDPEVKFNWYVDGVEVHNAKTKPREEQYNSTYRVVSVLTVLHQDWLNGKEYKCKVSNKALPAPIEKTISKAKGQPREPQVYVLPPSREEMTKNQVSLLCLVKGFYPSDIAVEWESNGQPENNYLTWPPVLDSDGSFFLYSKLTVDKSRWQQGNVFSCSVMHEALHNHYTQKSLSLSPG light: not shown",0.133 nM
4,"HC3B216 (bispecific antibody, human IgG1, lambda, L234A L235A) heavy: QVQLQQSGPRLVRPSQTLSLTCAISGDSVFNNNAAWSWIRQSPSRGLEWLGRTYYRSKWLYDYAVSVKSRITVNPDTSRNQFTLQLNSVTPEDTALYYCARGYSSSFDYWGQGTLVTVSSASTKGPSVFPLAPSSKSTSGGTAALGCLVKDYFPEPVTVSWNSGALTSGVHTFPAVLQSSGLYSLSSVVTVPSSSLGTQTYICNVNHKPSNTKVDKKVEPKSCDKTHTCPPCPAPEAAGGPSVFLFPPKPKDTLMISRTPEVTCVVVSVSHEDPEVKFNWYVDGVEVHNAKTKPREEQYNSTYRVVSVLTVLHQDWLNGKEYKCKVSNKALPAPIEKTISKAKGQPREPQVYVYPPSREEMTKNQVSLTCLVKGFYPSDIAVEWESNGQPENNYKTTPPVLDSDGSFALVSKLTVDKSRWQQGNVFSCSVMHEALHNHYTQKSLSLSPG light: QSALTQPASVSGSPGQSITISCTGTSSNIGTYKFVSWYQQHPDKAPKVLLYEVSKRPSGVSSRFSGSKSGNTASLTISGLQAEDQADYHCVSYAGSGTLLFGGGTKLTVLGQPKAAPSVTLFPPSSEELQANKATLVCLISDFYPGAVTVAWKADSSPVKAGVETTTPSKQSNNKYAASSYLSLTPEQWKSHRSYSCQVTHEGSTVEKTVAPTECS scFv: not shown",1.9 nM
5,"HC3B123 (bispecific antibody, human IgG1, kappa, L234A L235A) heavy: EVQLVESGGGLVKPGGSLRLSCAASGFTFSRYNMNWVRQAPGKGLEWVSSISTSSNYIYYADSVKGRFTFSRDNAKNSLDLQMSGLRAEDTAIYYCTRGWGPFDYWGQGTLVTVSSASTKGPSVFPLAPSSKSTSGGTAALGCLVKDYFPEPVTVSWNSGALTSGVHTFPAVLQSSGLYSLSSVVTVPSSSLGTQTYICNVNHKPSNTKVDKKVEPKSCDKTHTCPPCPAPEAAGGPSVFLFPPKPKDTLMISRTPEVTCVVVSVSHEDPEVKFNWYVDGVEVHNAKTKPREEQYNSTYRVVSVLTVLHQDWLNGKEYKCKVSNKALPAPIEKTISKAKGQPREPQVYVYPPSREEMTKNQVSLTCLVKGFYPSDIAVEWESNGQPENNYKTTPPVLDSDGSFALVSKLTVDKSRWQQGNVFSCSVMHEALHNHYTQKSLSLSPG light: DIQMTQSPSSLSASVGDRVTITCRARQSIGTAIHWYQQKPGKAPKLLIKYASESISGVPSRFSGSGSGTDFTLTISSVQPEDFATYYCQQSGSWPYTFGQGTKLEIKRTVAAPSVFIFPPSDEQLKSGTASVVCLLNNFYPREAKVQWKVDNALQSGNSQESVTEQDSKDSTYSLSSTLTLSKADYEKHKVYACEVTHQGLSSPVTKSFNRGEC scFv: DIVMTQSPDSLAVSLGERATINCKSSQSVLHSSNNKNYLTWFQQKPGQPPKLLIYWASTRESGVPDRFSGSGSGTDFTLTISSLQAEDVAVYYCHQYYSTPPTFGQGTKVEIKGGSEGKSSGSGSESKSTGGSQVQLQQSGPGLVKPSQTLSLTCAISGDSVSSNSAAWNWIRQSPSRGLEWLGRTYYRSKWYNDYAVSVKSRITINPDTSKNQISLQLNSVTPEDTAVYYCAGDRRYGIVGLPFAYWGQGTLVTVSSEPKSSDKTHTCPPCPAPEAAGGPSVFLFPPKPKDTLMISRTPEVTCVVVSVSHEDPEVKFNWYVDGVEVHNAKTKPREEQYNSTYRVVSVLTVLHQDWLNGKEYKCKVSNKALPAPIEKTISKAKGQPREPQVYVLPPSREEMTKNQVSLLCLVKGFYPSDIAVEWESNGQPENNYLTWPPVLDSDGSFFLYSKLTVDKSRWQQGNVFSCSVMHEALHNHYTQKSLSLSPG",0.00324 nM
6,"HC3B214 (bispecific antibody, human IgG1, kappa, L234A L235A) heavy: EVQLVESGGGLVKPGGSLRLSCAASGFTFSRYNMNWVRQAPGKGLEWVSSISTSSNYIYYADSVKGRFTFSRDNAKNSLDLQMSGLRAEDTAIYYCTRGWGPFDYWGQGTLVTVSSASTKGPSVFPLAPSSKSTSGGTAALGCLVKDYFPEPVTVSWNSGALTSGVHTFPAVLQSSGLYSLSSVVTVPSSSLGTQTYICNVNHKPSNTKVDKKVEPKSCDKTHTCPPCPAPEAAGGPSVFLFPPKPKDTLMISRTPEVTCVVVSVSHEDPEVKFNWYVDGVEVHNAKTKPREEQYNSTYRVVSVLTVLHQDWLNGKEYKCKVSNKALPAPIEKTISKAKGQPREPQVYVYPPSREEMTKNQVSLTCLVKGFYPSDIAVEWESNGQPENNYKTTPPVLDSDGSFALVSKLTVDKSRWQQGNVFSCSVMHEALHNHYTQKSLSLSPG light: DIQMTQSPSSLSASVGDRVTITCRARQSIGTAIHWYQQKPGKAPKLLIKYASESISGVPSRFSGSGSGTDFTLTISSVQPEDFATYYCQQSGSWPYTFGQGTKLEIKRTVAAPSVFIFPPSDEQLKSGTASVVCLLNNFYPREAKVQWKVDNALQSGNSQESVTEQDSKDSTYSLSSTLTLSKADYEKHKVYACEVTHQGLSSPVTKSFNRGEC scFv: not shown",0.138 nM

# Target: T1, Human CD3 epsilon (CD3ε) of the T cell receptor complex on cells (human, UniProt P07766 23-207)
# T1 construct: On Jurkat cells and primary human (pan) T cells; also called T-cell surface glycoprotein CD3 epsilon chain; T3E
# Test: flow cytometry, E. coli supernatant on human T cells
# T1 sequence (P07766 23-207 limits assumed, one chain of several): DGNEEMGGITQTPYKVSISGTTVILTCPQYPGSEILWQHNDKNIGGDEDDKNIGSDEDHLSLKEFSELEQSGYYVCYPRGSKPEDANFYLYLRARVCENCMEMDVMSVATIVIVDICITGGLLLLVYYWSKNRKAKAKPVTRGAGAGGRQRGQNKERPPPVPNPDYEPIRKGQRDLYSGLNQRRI
row,Binder,MFI (n = 2)
1,CD3W241-HL-E.C. (scFv) EVQLVESGGGLVKPGGSLRLSCAASGFTFSRYNMNWVRQAPGKGLEWVSSISTSSNYIYYADSVKGRFTFSRDNAKNSLDLQMSGLRAEDTAIYYCTRGWGPFDYWGQGTLVTVSSGTEGKSSGSGSESKSTDIQMTQSPSSLSASVGDRVTITCRARQSIGTAIHWYQQKPGKAPKLLIYYASESISGVPSRFSGSGSGTDFTLTISSVQPEDFATYYCQQSNSWPYTFGQGTKLEIKGPGGQHHHHHHGAYPYDVPDYAS,121000
